Each block holds one substance with its values, some of them ahead of it.
Experiments:
[1] = molecular target: CD28 (human) (UniProt P10747); test: flow cytometry, transfected cells
[2] = molecular target: ICOS (Homo sapiens (Human)) (UniProt Q9Y6W8); test: flow cytometry, transfected cells
[3] = molecular target: CTLA-4 (Homo sapiens (Human)) (UniProt P16410); test: flow cytometry, transfected cells
[4] = molecular target: human PD-1 (human) (UniProt Q15116); test: flow cytometry, CHO/PD-1 cells, 100 nM, anti-Flag
human PD-1 (human), sequence (Q15116 25-288): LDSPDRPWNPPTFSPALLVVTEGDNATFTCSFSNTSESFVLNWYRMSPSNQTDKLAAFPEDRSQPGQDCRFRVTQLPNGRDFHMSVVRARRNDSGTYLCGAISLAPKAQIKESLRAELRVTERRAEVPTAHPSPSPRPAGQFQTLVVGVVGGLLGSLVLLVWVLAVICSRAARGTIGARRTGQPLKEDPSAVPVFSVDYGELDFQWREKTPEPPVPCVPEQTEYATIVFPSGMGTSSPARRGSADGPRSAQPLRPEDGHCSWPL

[5] = molecular target: human CTLA-4 (human); test: flow cytometry, CHO/CTLA-4 cells, 100 nM, anti-Flag
human CTLA-4 (human), sequence (chain, as listed by the source): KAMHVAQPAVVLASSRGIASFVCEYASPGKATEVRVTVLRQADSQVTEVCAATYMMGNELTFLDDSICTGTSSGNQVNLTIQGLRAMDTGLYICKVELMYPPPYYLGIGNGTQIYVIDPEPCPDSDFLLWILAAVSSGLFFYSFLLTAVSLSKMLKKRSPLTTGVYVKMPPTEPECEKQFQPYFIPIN

[6] = molecular target: PD-L1 (human); test: flow cytometry on HEK293 cells transfected with PD-L1
PD-L1 (human), sequence (chain, as listed by the source): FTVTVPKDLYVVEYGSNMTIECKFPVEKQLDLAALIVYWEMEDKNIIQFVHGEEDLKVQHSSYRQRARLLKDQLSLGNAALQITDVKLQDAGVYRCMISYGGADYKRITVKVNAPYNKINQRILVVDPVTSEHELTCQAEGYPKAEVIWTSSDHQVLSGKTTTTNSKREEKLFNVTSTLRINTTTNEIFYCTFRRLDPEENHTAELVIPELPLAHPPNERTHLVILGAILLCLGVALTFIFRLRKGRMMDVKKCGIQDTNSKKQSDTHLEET

[7] = molecular target: CD28 (human) (UniProt P10747); test: flow cytometry on HEK293 cells transfected with CD28
[8] = molecular target: T1, TIGIT (human) (UniProt Q495A1); test: flow cytometry, transfected HEK293
T1 sequence: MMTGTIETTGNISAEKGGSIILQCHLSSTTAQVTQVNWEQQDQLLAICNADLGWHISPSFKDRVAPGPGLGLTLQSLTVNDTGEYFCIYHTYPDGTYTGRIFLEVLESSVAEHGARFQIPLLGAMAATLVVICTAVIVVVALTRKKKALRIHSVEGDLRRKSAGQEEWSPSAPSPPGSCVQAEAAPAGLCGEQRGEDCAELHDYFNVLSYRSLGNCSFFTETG

[9] = molecular target: CD112R (human) (UniProt Q6DKI7); test: flow cytometry, transfected HEK293
CD112R (human), sequence (Q6DKI7 whole entry): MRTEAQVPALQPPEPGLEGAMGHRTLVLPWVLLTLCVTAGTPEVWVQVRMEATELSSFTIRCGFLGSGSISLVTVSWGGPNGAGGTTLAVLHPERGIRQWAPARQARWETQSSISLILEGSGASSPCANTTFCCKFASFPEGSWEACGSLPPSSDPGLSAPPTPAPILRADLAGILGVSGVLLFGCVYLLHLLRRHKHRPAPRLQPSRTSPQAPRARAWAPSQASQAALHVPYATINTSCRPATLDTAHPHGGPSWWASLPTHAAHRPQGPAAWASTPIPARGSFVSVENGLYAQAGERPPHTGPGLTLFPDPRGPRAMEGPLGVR

[10] = molecular target: T2, CD226 (human) (UniProt Q15762); test: flow cytometry, transfected HEK293
T2 sequence: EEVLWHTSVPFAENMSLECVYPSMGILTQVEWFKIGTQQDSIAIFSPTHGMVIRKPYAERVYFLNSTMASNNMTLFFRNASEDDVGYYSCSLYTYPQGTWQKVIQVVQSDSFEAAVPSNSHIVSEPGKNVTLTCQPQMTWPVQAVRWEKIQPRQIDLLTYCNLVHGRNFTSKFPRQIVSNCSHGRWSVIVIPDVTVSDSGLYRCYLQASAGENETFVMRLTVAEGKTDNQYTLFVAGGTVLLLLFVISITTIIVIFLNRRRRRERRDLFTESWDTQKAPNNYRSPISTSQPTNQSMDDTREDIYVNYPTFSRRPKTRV

[11] = molecular target: T3, CD96 (human) (UniProt P40200); test: flow cytometry, transfected HEK293
T3 sequence: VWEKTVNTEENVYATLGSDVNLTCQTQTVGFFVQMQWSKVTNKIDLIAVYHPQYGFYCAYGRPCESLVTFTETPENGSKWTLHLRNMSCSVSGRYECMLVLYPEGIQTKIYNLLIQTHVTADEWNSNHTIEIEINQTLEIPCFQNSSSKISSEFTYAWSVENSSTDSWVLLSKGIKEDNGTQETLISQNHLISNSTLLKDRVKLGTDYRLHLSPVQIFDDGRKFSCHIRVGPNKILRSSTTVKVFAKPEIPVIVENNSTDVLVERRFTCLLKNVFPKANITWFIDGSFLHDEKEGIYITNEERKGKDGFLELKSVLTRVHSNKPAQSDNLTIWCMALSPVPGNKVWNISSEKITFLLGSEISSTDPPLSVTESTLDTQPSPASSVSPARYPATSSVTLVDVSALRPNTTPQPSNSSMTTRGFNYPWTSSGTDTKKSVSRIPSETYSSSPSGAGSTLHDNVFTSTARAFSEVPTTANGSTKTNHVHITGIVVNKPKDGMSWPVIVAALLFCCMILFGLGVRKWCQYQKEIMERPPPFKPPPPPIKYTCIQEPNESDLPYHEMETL

[12] = molecular target: human PD-1 (human) (UniProt Q15116)
[13] = molecular target: T3, CD96 (human); test: flow cytometry, CD96-transfected Expi293 cells
[14] = molecular target: T1, TIGIT (human); test: flow cytometry, TIGIT-transfected Expi293 cells
[15] = molecular target: T2, CD226 (human); test: flow cytometry, CD226-transfected Expi293 cells
[16] = molecular target: CD28 (human) (UniProt P10747); test: flow cytometry, Jurkat cells (endogenous CD28), 100 nM, anti-Flag
[17] = molecular target: T1, TIGIT (human); test: flow cytometry on transfected HEK293 cells, 100 nM
[18] = molecular target: T4, human ICOSL (human); test: flow cytometry, cells expressing human ICOSL
T4 sequence: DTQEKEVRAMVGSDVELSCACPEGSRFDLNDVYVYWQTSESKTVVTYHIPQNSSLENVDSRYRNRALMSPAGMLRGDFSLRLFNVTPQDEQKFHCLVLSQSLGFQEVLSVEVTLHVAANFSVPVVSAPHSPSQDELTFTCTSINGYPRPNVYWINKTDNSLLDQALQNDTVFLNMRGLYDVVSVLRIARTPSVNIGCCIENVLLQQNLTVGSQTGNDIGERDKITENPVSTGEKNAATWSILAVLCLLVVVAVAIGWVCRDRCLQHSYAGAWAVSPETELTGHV

[19] = molecular target: human PD-1 (human) (UniProt Q15116); test: flow cytometry, cells expressing PD-1, 20 nM
[20] = molecular target: CD80 (human); test: flow cytometry, cells expressing CD80, 20 nM
CD80 (human), sequence (chain, as listed by the source): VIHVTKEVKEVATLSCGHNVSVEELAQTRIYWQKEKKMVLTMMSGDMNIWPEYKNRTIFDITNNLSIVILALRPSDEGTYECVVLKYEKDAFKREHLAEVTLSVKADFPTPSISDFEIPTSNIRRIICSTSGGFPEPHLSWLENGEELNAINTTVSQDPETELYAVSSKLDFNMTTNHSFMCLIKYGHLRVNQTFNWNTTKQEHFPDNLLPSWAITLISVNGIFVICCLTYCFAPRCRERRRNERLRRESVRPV

Wild type CD155 IgV-Fc (Fc fusion), sequence (chain): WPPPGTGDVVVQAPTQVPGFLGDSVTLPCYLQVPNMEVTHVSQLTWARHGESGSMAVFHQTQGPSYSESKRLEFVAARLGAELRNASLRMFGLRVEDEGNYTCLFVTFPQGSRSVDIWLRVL
WT CD112 IgV (Fc fusion), sequence (chain): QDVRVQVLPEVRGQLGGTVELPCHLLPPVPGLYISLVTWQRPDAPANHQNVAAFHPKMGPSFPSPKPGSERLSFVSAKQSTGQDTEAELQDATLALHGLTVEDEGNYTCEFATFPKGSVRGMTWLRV
Wild-type PD-L1 (IgV, SEQ ID NO 309) (ligand), sequence (chain): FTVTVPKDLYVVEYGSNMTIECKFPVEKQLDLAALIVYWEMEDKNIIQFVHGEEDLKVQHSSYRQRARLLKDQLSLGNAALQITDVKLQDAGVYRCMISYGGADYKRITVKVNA
ICOS (Homo sapiens (Human)), sequence (Q9Y6W8 21-199 limits assumed): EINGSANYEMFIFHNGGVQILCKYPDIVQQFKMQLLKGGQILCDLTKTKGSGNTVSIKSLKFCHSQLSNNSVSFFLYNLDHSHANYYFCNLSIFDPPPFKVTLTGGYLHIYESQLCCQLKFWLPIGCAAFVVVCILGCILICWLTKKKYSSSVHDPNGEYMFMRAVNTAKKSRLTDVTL
Wild Type PD-L2 IgV Fc fusion, sequence (chain): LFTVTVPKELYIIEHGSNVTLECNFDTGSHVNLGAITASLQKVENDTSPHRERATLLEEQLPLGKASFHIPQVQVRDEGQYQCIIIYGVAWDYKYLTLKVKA
WT CD80 ECD-Fc (Fc fusion), sequence (chain): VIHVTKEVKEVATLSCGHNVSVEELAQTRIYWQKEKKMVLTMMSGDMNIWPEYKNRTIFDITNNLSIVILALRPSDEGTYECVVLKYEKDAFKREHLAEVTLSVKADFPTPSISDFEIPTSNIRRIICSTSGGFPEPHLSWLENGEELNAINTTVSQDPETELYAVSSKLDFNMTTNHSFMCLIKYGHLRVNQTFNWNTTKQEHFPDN
Wildtype CD112-IgV Fc (Fc fusion), sequence (chain): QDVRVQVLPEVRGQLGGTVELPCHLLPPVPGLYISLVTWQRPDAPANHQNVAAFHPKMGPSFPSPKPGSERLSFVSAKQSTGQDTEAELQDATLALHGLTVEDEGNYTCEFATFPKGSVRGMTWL

- MFI [1]: 142000 MFI
- MFI ratio to WT (ΔWT) [1]: 6.4 fold
- MFI [2]: 200000 MFI
- MFI ratio to WT (ΔWT) [2]: 0.94 fold
- MFI [3]: 817000 MFI
- MFI ratio to WT (ΔWT) [3]: 2.47 fold
Substance: ICOSL-Fc N52H/N57Y/Q100R (Fc fusion)

- MFI [4]: 26200
- MFI [5]: 152
Substance: PD-L2 1417 (monomeric variant PD-L2 IgV H15Q/T47A/K65R/S67L/Q82R/V89D) (ligand)

- MFI at 22.2 nM [6]: 6310 MFI
Substance: Variant CD80 S44P/A71D Fc fusion

- MFI at 66.6 nM [7]: 24800 MFI
Substance: WT CD80 ECD-Fc (Fc fusion)

- MFI at 20 nM [8]: 34900
- MFI at 20 nM [9]: 1660
- MFI at 20 nM [10]: 10800
- MFI at 20 nM [11]: 2500
Substance: WT CD112 IgV (Fc fusion)

- IFN gamma levels pg/mL (MLR) [12]: 1380 pg/mL
Substance: Wild Type PD-L2 IgV Fc fusion

- MFI [13]: 3080
- MFI [14]: 2720
- MFI [15]: 3720
Substance: Wild type CD155 IgV-Fc (Fc fusion)

- MFI [16]: 716
- MFI [5]: 97.4
Substance: Wild-type PD-L1 (IgV, SEQ ID NO 309) (ligand)

- MFI at 100 nM [17]: 82400 MFI
Substance: Wildtype CD112-IgV Fc (Fc fusion)

- MFI at 100 nM [17]: 20600 MFI
Substance: variant CD112 IgV-Fc Y33H, A112V (Fc fusion)

- MFI [18]: 570 MFI
Substance: variant CTLA-4 ECD-Fc G29W/L98Q/Y105L (Fc fusion)

- MFI [18]: 612 MFI
Substance: variant CTLA-4 ECD-Fc G29W/M56T/L98Q/Y105L (Fc fusion)

- MFI [18]: 534 MFI
Substance: variant CTLA-4 ECD-Fc G29W/M56T/S72G/L98Q/Y105L (Fc fusion)

- MFI [18]: 862 MFI
Substance: variant CTLA-4 ECD-Fc L12F/R16H/G29W/L98Q/Y105L (Fc fusion)

- MFI [18]: 613 MFI
Substance: variant CTLA-4 ECD-Fc L12F/R16H/G29W/M56T/S72G/L98Q/Y105L (Fc fusion)

- MFI [18]: 700 MFI
Substance: variant CTLA-4 ECD-Fc M56T/L98Q/Y105L (Fc fusion)

- MFI at 20 nM [19]: 125 MFI
Substance: variant PD-L1 G15A/I36T/V129D/R195G Fc fusion

- MFI at 20 nM [20]: 128 MFI
Substance: variant PD-L1 G15A/V129D Fc fusion

- MFI at 20 nM [20]: 128 MFI
- MFI at 20 nM [19]: 120 MFI
Substance: variant PD-L1 I36T/M97L/A103V/Q155H Fc fusion

- MFI at 20 nM [20]: 150 MFI
Substance: variant PD-L1 V93E/V129D Fc fusion

- MFI at 20 nM [19]: 2000 MFI
Substance: variant PD-L1 V129D/H202Q Fc fusion

- IFN gamma levels pg/mL (MLR) [12]: 1730 pg/mL
Substance: variant PD-L2 IgV H15Q/T47A/H69L/Q82R/V89D Fc fusion

- IFN gamma levels pg/mL (MLR) [12]: 1340 pg/mL
Substance: variant PD-L2 IgV H15Q/T47A/K65R/S67L/Q82R/V89D Fc fusion
